Measurements: US20260263521A1, “ANTI-CD200R1 ANTIBODY AND USE THEREOF” (AIMED BIO INC., priority 2023, published 2026)
Where a chain is given by its changes, count along the chain named.

T1: CD200R1 on HH (CRL-2105) cells (Homo sapiens, UniProt Q8TD46)
T1 construct: HH (CRL-2105) cells, which endogenously express CD200R1; host or cells: HH (CRL-2105) cells
T1 sequence (Q8TD46 25-348): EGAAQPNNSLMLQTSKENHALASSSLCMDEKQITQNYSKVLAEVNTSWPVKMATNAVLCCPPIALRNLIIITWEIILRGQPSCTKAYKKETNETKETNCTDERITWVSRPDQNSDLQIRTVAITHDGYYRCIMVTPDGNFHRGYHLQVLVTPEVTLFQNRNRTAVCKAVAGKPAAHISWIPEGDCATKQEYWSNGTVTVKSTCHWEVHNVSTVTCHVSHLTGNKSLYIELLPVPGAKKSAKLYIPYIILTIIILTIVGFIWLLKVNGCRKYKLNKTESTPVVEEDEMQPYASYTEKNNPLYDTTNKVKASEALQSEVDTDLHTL

B1: P001009: phage display anti-CD200R1 clone; VH SEQ ID NO: 79, VL SEQ ID NO: 94 (antibody, V domains shown)
VH: EVQLLESGGGLVQPGGSLRLSCAASGFTFSSYDMSWVRQAPGKGLEWVSWISHGGGSIYYADSVKGRFTISRDNSKNTLYLQMNSLRAEDTAVYYCARDAPAYSAPLFDYWGQGTLVTVSS
VL: QSVLTQPPSASGTPGQRVTISCSGSSSNIGNNAVNWYQQLPGTAPKLLIYYDSNRPSGVPDRFSGSKSGTSASLAISGLRSEDEADYYCAAWDDSLSGYVFGGGTKLTVL
B2: P001009v1: P001009 variant, LC S52 and LC S94 substituted with K and R; VH SEQ ID NO: 79 (antibody, V domains shown)
VH: B1 VH
VL: B1 VL with S53K, S95R

How the values were obtained:
[1] = biological target: T1, CD200R1 on HH (CRL-2105) cells; assay: Cell binding assay (flow cytometry), HH cells; format: cell-based
Experimental: The binding ability of the antibodies identified using unique multifaceted antibody discovery technology was identified in HH (CRL-2105) cells, which endogenously express CD200R1, and Jurkat-CD200R1 cells (Source: DiscoverX), which were generated by intranuclear injection of CD200R1 cDNA.
HH and Jurkat-CD200R1 cells were maintained in RPMI 1640 medium supplemented with 10% heat-inactivated FBS and 1% Penicillin/Streptomycin (P/S). The cells were washed by centrifugation at 130 g for 5 minutes. The cells were seeded onto 96-well round-bottom plates (SPL, #34296) at a density of 1×10^5 cells/well in Flow cytometry staining buffer (Invitrogen, #00-4222-26) or FACS buffer. The cells were treated with all 16 substances and the positive control LY3454738 (US 2020/0087395, I-4P, at Eli Lilly) a concentration of 500 nM in the IgG1 form. After incubation for 1 hour at 4° C., the cells were treated with Alexa-647 Goat anti-human IgG (H+L) cross-adsorbed secondary antibody (Invitrogen, #A21445) and incubated at 4° C. for an additional 30 minutes. […]
Cell-binding ability was determined in the same manner as in Example 12. For the six active substances primarily selected in Example 12, the isotype was changed to IgG4 or the LALAPG gene was mutated, and binding activity was determined in the two cell lines mentioned above.
Binding ability was determined in HH, an endogenous T cell line with high CD200R1 expression, and two additional overexpressing cell lines: U937-CD200R overexpressing cells, generated by intranuclear injection of human CD200R1 CDNA into the monocytic cell line U937 (CRL-1593.2) (Source: UMC Utrecht, the Netherlands) and Jurkat-CD200R overexpressing cells, were also cells engineered using a similar method.
All cell lines were maintained in RPMI 1640 medium supplemented with 10% heat-inactivated FBS and 1% penicillin/streptomycin (P/S) and cell binding was determined in the same manner as in Example 12. […]
Specific binding ability was determined using P001009 WT and antibody-optimized mutants, P001009v1, P001009v2, P001009v3, and P001009v4. […]

[2] = tested on: IL-6 in U937-CD200R1 cells; assay: IL-6 suppression in LPS-treated U937-CD200R1 cells (AlphaLISA); format: cell-based, human; conditions: for IL-6: LPS-treated U937-CD200R1 cells, 24 h
Experimental: To determine the binding ability of the candidates to U937-CD200R1-overexpressing cell lines and verify the efficacy thereof, the anti-inflammatory effect of anti-CD200R1 antibodies was analyzed. First, 5×10^6 U937-CD200R1 cells were added to 12 ml of medium, treated with 30 ng/ml of Phorbol 12-myristate 13-acetate (Sigma Aldrich, #P1585), and reacted at 37° C. in 5% CO2 for 24 hours. After reaction, the medium was replaced with RPMI 1640 medium containing only 10% heat-inactivated FBS, and 5×10^6 cells were maintained at 37° C. in 5% CO2 for 24 hours.
Cells were seeded on duplicate onto 96-well round-bottom plates (SPL, #34296) at 1×10^5 cells/50 μl/well. P001009 WT, P001009v1, and the previously published CD200R antibody LY3454738 (US 2020/0087395, I-4P, Eli Lilly) as a positive control were used in this experiment. The drug was serially diluted 10-fold from a maximum concentration of 100 nM and treated to the cells at concentrations of 10 nM, 1 nM, […], respectively. Additional cells were treated with 100 nM of hIgG4 kappa isotype control (Crownvivo, #C0004) as a negative control. Untreated cells were seeded in the same amount of medium (RPMI 1640 containing 10% heat-inactivated FBS) and incubated at 37° C., 5% CO2 for 1 hour. To induce an inflammatory response in drug-treated cells, each well was treated with 10 μl of lipopolysaccharide from Salmonella typhosa (Sigma Aldrich, #L7895) at a concentration of 1 μg/ml. One well was left untreated to assess the induction of inflammatory cytokines. After thorough mixing, the cells were incubated at 37° C. and 5% CO2 for 24 hours.
After centrifugation at 1100 g for 2 minutes, images of the pellets before and after LPS treatment were captured using a microscope (Carl Zeiss, AXIO VERT.A1). After LPS treatment, the pellet appeared as scattered debris (FIG. 18B) rather than uniform spheroids (FIG. 18A). This was observed under a microscope. The supernatant was collected and analyzed for inflammatory cytokines such as TNF-α and IL-6 using an EnVision® multimode plate reader (PerkinElmer). A bead-based cytokine assay was performed using the AlphaLISA immunoassay on the EnVision® instrument. TNF-α(human) AlphaLISA Detection Kit, 500 assay points (PerkinElmer, #AL208C) was used for TNF-α, and the IL-6 (human) AlphaLISA Detection Kit, 500 assay points (PerkinElmer, #AL223C) was used for IL-6. Cytokine levels were determined depending on the concentration of each antibody.

Molecule | cell binding ability, IgG4 or LALAPG mutants ([1]; HH cells) | IL-6 ([2]; log [Ab] (M) −7) | IL-6 ([2]; log [Ab] (M) −8) | IL-6 ([2]; log [Ab] (M) −9) | IL-6 ([2]; log [Ab] (M) −10) | IL-6 ([2]; log [Ab] (M) −11) | IL-6 ([2]; log [Ab] (M) −12) | binding ability to HH cell line ([1]; serial dilution from 100 nM) | IL-6 level ([2]; low nanomolar (nM) drug concentrations)
B1 | highest efficacy | 231.7 ± 24.1 pg/mL | 401.5 ± 9.6 pg/mL | 1245.6 ± 49.9 pg/mL | 3398.1 ± 325.5 pg/mL | 3751.0 ± 144.5 pg/mL | 4512.7 ± 74.1 pg/mL | – | –
B2 | – | 153.7 ± 8.8 pg/mL | 165.1 ± 8.4 pg/mL | 454.2 ± 45 pg/mL | 2439 ± 56.8 pg/mL | 3517.7 ± 166.3 pg/mL | 4730.2 ± 99.8 pg/mL | exhibited binding ability | maintained low inflammatory cytokine levels
